From the supplement of paper PMC5998384

How the values were obtained:
HeLa Kyoto [1] = assay: solubility in G1/S (NP-40 vs SDS abundance) (log2 ratio); higher = more soluble; settings: cell cycle stage: G1/S
HeLa Kyoto [2] = assay: melting temperature (median over replicates), in situ; higher = more thermally stable
HeLa Kyoto [3] = assay: solubility change mitosis vs G1/S (difference of NP-40 vs SDS log2 ratios) (log2 ratio difference); higher = more soluble in mitosis
HeLa Kyoto [4] = assay: thermal stability score vs G1/S (z-score of summed log2 fold changes over temperatures); higher = more thermally stable than in G1/S
[5] = cell cycle stage: early G1 (4.5 h after nocodazole release)
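For melting temperature (median over replicates), in situ in this document: HeLa Kyoto cells synchronized by double thymidine or nocodazole block, proteins quantified by TMT10plex mass spectrometry, three independent biological replicates.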
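For solubility change mitosis vs G1/S (difference of NP-40 vs SDS log2 ratios) in this document: synchronized HeLa Kyoto cells (double thymidine block for G1/S, nocodazole release for mitosis), protein amounts in NP-40 versus SDS lysates quantified by mass spectrometry, three biological replicates.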
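For solubility in G1/S (NP-40 vs SDS abundance) in this document: HeLa Kyoto cells arrested at G1/S by double thymidine block, proteins quantified by TMT10plex mass spectrometry in mild NP-40 versus SDS extracts, three biological replicates.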
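For thermal stability score vs G1/S (z-score of summed log2 fold changes over temperatures) in this document: synchronized HeLa Kyoto cells, proteins quantified by TMT10plex mass spectrometry, three biological replicates, mitosis taken 0.5 h after nocodazole release, G1/S directly after double thymidine block.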

Sequence | solubility in G1/S (log2) (HeLa Kyoto [1]) | melting temperature (HeLa Kyoto [2]; cell cycle stage: G1/S) [°C] | melting temperature (HeLa Kyoto [2]; cell cycle stage: mitosis) [°C] | solubility change mitosis (log2) (HeLa Kyoto [3]) | thermal stability score (HeLa Kyoto [4]; [5]) | thermal stability score (HeLa Kyoto [4]; cell cycle stage: mitosis)
MGWVGGRRRDSASPPGRSRSAADDINPAPANMEGGGGSVAVAGLGARGSGAAAATVRELLQDGCYSDFLNEDFDVKTYTSQSIHQAVIAEQLAKLAQGISQLDRELHLQVVARHEDLLAQATGIESLEGVLQMMQTRIGALQGAVDRIKAKIVEPYNKIVARTAQLARLQVACDLLRRIIRILNLSKRLQGQLQGGSREITKAAQSLNELDYLSQGIDLSGIEVIENDLLFIARARLEVENQAKRLLEQGLETQNPTQVGTALQVFYNLGTLKDTITSVVDGYCATLEENINSALDIKVLTQPSQSAVRGGPGRSTMPTPGNTAALRASFWTNMEKLMDHIYAVCGQVQHLQKVLAKKRDPVSHICFIEEIVKDGQPEIFYTFWNSVTQALSSQFHMATNSSMFLKQAFEGEYPKLLRLYNDLWKRLQQYSQHIQGNFNASGTTDLYVDLQHMEDDAQDIFIPKKPDYDPEKALKDSLQPYEAAYLSKSLSRLFDPINLVFPPGGRNPPSSDELDGIIKTIASELNVAAVDTNLTLAVSKNVAKTIQLYSVKSEQLLSTQGDASQVIGPLTEGQRRNVAVVNSLYKLHQSVTKVVSSQSSFPLAAEQTIISALKAIHALMENAVQPLLTSVGDAIEAIIITMHQEDFSGSLSSSGKPDVPCSLYMKELQGFIARVMSDYFKHFECLDFVFDNTEAIAQRAVELFIRHASLIRPLGEGGKMRLAADFAQMELAVGPFCRRVSDLGKSYRMLRSFRPLLFQASEHVASSPALGDVIPFSIIIQFLFTRAPAELKSPFQRAEWSHTRFSQWLDDHPSEKDRLLLIRGALEAYVQSVRSREGKEFAPVYPIMVQLLQKAMSALQ [COG5] | 0.00411 | 48.3 | 48 | -0.0443 | 0.309 | 0.873
MGYFRCARAGSFGRRRKMEPSTAARAWALFWLLLPLLGAVCASGPRTLVLLDNLNVRETHSLFFRSLKDRGFELTFKTADDPSLSLIKYGEFLYDNLIIFSPSVEDFGGNINVETISAFIDGGGSVLVAASSDIGDPLRELGSECGIEFDEEKTAVIDHHNYDISDLGQHTLIVADTENLLKAPTIVGKSSLNPILFRGVGMVADPDNPLVLDILTGSSTSYSFFPDKPITQYPHAVGKNTLLIAGLQARNNARVIFSGSLDFFSDSFFNSAVQKAAPGSQRYSQTGNYELAVALSRWVFKEEGVLRVGPVSHHRVGETAPPNAYTVTDLVEYSIVIQQLSNGKWVPFDGDDIQLEFVRIDPFVRTFLKKKGGKYSVQFKLPDVYGVFQFKVDYNRLGYTHLYSSTQVSVRPLQHTQYERFIPSAYPYYASAFSMMLGLFIFSIVFLHMKEKEKSD [DDOST] | -0.0357 | 54.1 | 54.2 | -0.163 | 2.5 | 2.41
MHDAFEPVPILEKLPLQIDCLAAWEEWLLVGTKQGHLLLYRIRKDVVPADVASPESGSCNRFEVTLEKSNKNFSKKIQQIHVVSQFKILVSLLENNIYVHDLLTFQQITTVSKAKGASLFTCDLQHTETGEEVLRMCVAVKKKLQLYFWKDREFHELQGDFSVPDVPKSMAWCENSICVGFKRDYYLIRVDGKGSIKELFPTGKQLEPLVAPLADGKVAVGQDDLTVVLNEEGICTQKCALNWTDIPVAMEHQPPYIIAVLPRYVEIRTFEPRLLVQSIELQRPRFITSGGSNIIYVASNHFVWRLIPVPMATQIQQLLQDKQFELALQLAEMKDDSDSEKQQQIHHIKNLYAFNLFCQKRFDESMQVFAKLGTDPTHVMGLYPDLLPTDYRKQLQYPNPLPVLSGAELEKAHLALIDYLTQKRSQLVKKLNDSDHQSSTSPLMEGTPTIKSKKKLLQIIDTTLLKCYLHTNVALVAPLLRLENNHCHIEESEHVLKKAHKYSELIILYEKKGLHEKALQVLVDQSKKANSPLKGHERTVQYLQHLGTENLHLIFSYSVWVLRDFPEDGLKIFTEDLPEVESLPRDRVLGFLIENFKGLAIPYLEHIIHVWEETGSRFHNCLIQLYCEKVQGLMKEYLLSFPAGKTPVPAGEEEGELGEYRQKLLMFLEISSYYDPGRLICDFPFDGLLEERALLLGRMGKHEQALFIYVHILKDTRMAEEYCHKHYDRNKDGNKDVYLSLLRMYLSPPSIHCLGPIKLELLEPKANLQAALQVLELHHSKLDTTKALNLLPANTQINDIRIFLEKVLEENAQKKRFNQVLKNLLHAEFLRVQEERILHQQVKCIITEEKVCMVCKKKIGNSAFARYPNGVVVHYFCSKEVNPADT [VPS39] | -0.174 | 50.8 | 50.1 | -0.261 | 0.627 | 0.376
MHPAVFLSLPDLRCSLLLLVTWVFTPVTTEITSLDTENIDEILNNADVALVNFYADWCRFSQMLHPIFEEASDVIKEEFPNENQVVFARVDCDQHSDIAQRYRISKYPTLKLFRNGMMMKREYRGQRSVKALADYIRQQKSDPIQEIRDLAEITTLDRSKRNIIGYFEQKDSDNYRVFERVANILHDDCAFLSAFGDVSKPERYSGDNIIYKPPGHSAPDMVYLGAMTNFDVTYNWIQDKCVPLVREITFENGEELTEEGLPFLILFHMKEDTESLEIFQNEVARQLISEKGTINFLHADCDKFRHPLLHIQKTPADCPVIAIDSFRHMYVFGDFKDVLIPGKLKQFVFDLHSGKLHREFHHGPDPTDTAPGEQAQDVASSPPESSFQKLAPSEYRYTLLRDRDEL [ERP44] | 0.277 | 53.9 | 54.1 | -0.0724 | 5.67 | 6.88
MHPRRPDGFDGLGYRGGARDEQGFGGAFPARSFSTGSDLGHWVTTPPDIPGSRNLHWGEKSPPYGVPTTSTPYEGPTEEPFSSGGGGSVQGQSSEQLNRFAGFGIGLASLFTENVLAHPCIVLRRQCQVNYHAQHYHLTPFTVINIMYSFNKTQGPRALWKGMGSTFIVQGVTLGAEGIISEFTPLPREVLHKWSPKQIGEHLLLKSLTYVVAMPFYSASLIETVQSEIIRDNTGILECVKEGIGRVIGMGVPHSKRLLPLLSLIFPTVLHGVLHYIISSVIQKFVLLILKRKTYNSHLAESTSPVQSMLDAYFPELIANFAASLCSDVILYPLETVLHRLHIQGTRTIIDNTDLGYEVLPINTQYEGMRDCINTIRQEEGVFGFYKGFGAVIIQYTLHAAVLQITKIIYSTLLQNNI [SLC25A46] | 0.0119 | 54.2 | 53.8 | -0.0414 | -2.69 | -1.76
MHRKKVDNRIRILIENGVAERQRSLFVVVGDRGKDQVVILHHMLSKATVKARPSVLWCYKKELGFSSHRKKRMRQLQKKIKNGTLNIKQDDPFELFIAATNIRYCYYNETHKILGNTFGMCVLQDFEALTPNLLARTVETVEGGGLVVILLRTMNSLKQLYTVTMDVHSRYRTEAHQDVVGRFNERFILSLASCKKCLVIDDQLNILPISSHVATMEALPPQTPDESLGPSDLELRELKESLQDTQPVGVLVDCCKTLDQAKAVLKFIEGISEKTLRSTVALTAARGRGKSAALGLAIAGAVAFGYSNIFVTSPSPDNLHTLFEFVFKGFDALQYQEHLDYEIIQSLNPEFNKAVIRVNVFREHRQTIQYIHPADAVKLGQAELVVIDEAAAIPLPLVKSLLGPYLVFMASTINGYEGTGRSLSLKLIQQLRQQSAQSQVSTTAENKTTTTARLASARTLYEVSLQESIRYAPGDAVEKWLNDLLCLDCLNITRIVSGCPLPEACELYYVNRDTLFCYHKASEVFLQRLMALYVASHYKNSPNDLQMLSDAPAHHLFCLLPPVPPTQNALPEVLAVIQVCLEGEISRQSILNSLSRGKKASGDLIPWTVSEQFQDPDFGGLSGGRVVRIAVHPDYQGMGYGSRALQLLQMYYEGRFPCLEEKVLETPQEIHTVSSEAVSLLEEVITPRKDLPPLLLKLNERPAERLDYLGVSYGLTPRLLKFWKRAGFVPVYLRQTPNDLTGEHSCIMLKTLTDEDEADQGGWLAAFWKDFRRRFLALLSYQFSTFSPSLALNIIQNRNMGKPAQPALSREELEALFLPYDLKRLEMYSRNMVDYHLIMDMIPAISRIYFLNQLGDLALSAAQSALLLGIGLQHKSVDQLEKEIELPSGQLMGLFNRIIRKVVKLFNEVQEKAIEEQMVAAKDVVMEPTMKTLSDDLDEAAKEFQEKHKKEVGKLKSMDLSEYIIRGDDEEWNEVLNKAGPNASIISLKSDKKRKLEAKQEPKQSKKLKNRETKNKKDMKLKRKK [NAT10] | -2.26 | 49.8 | 52.1 | 0.692 | 1.83 | 1.3
MIEQQKRKGPELPLVPVKRQRHELLLGAGSGPGAGQQQATPGALLQAGPPRCSSLQAPIMLLSGHEGEVYCCKFHPNGSTLASAGFDRLILLWNVYGDCDNYATLKGHSGAVMELHYNTDGSMLFSASTDKTVAVWDSETGERVKRLKGHTSFVNSCYPARRGPQLVCTGSDDGTVKLWDIRKKAAIQTFQNTYQVLAVTFNDTSDQIISGGIDNDIKVWDLRQNKLTYTMRGHADSVTGLSLSSEGSYLLSNAMDNTVRVWDVRPFAPKERCVKIFQGNVHNFEKNLLRCSWSPDGSKIAAGSADRFVYVWDTTSRRILYKLPGHAGSINEVAFHPDEPIIISASSDKRLYMGEIQ [SNRNP40] | -1.09 | 49.9 | 50.7 | 0.366 | -0.469 | -0.465
